Measured values published in publication PMC6602413.

Key:
[1] = molecular target: T1, Strep-RapZ (Escherichia coli (K-12?)) (UniProt P0A894); assay: EMSA; conditions: 10 mM Tris-HCl pH 7.0, 100 mM KCl, 10 mM MgCl2, 1 ug yeast tRNA per 10 ul, 30 min at 30 C (competition 15 + 15 min); native 6% PAGE at 4 C
T1 sequence: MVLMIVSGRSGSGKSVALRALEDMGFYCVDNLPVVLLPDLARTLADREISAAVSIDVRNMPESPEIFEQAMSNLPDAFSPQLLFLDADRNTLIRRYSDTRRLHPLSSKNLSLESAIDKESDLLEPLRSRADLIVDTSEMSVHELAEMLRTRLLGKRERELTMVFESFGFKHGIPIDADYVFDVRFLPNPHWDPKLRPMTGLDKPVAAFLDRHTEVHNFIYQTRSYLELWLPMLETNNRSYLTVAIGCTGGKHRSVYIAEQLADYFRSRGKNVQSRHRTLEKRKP

[2] = molecular target: T1, Strep-RapZ (Escherichia coli (K-12?)); assay: competition; conditions: 10 mM Tris-HCl pH 7.0, 100 mM KCl, 10 mM MgCl2, 1 ug yeast tRNA per 10 ul, 30 min at 30 C (competition 15 + 15 min); native 6% PAGE at 4 C

GGGAGAGUAGAUGCUCAUUCCAUCUCUUAUGUUCGCCUUAGUGCCUCAUAAACUCCGGAAUGACGCAGAGCCGUUUACGGUGCUUAUCGUCCACUGACAGAUGUCGCUUAUGCCUCAUCAGACACCAUGGACACAACGUUGAGUGAAGCACCCACUUGUUG [GlmZ* (processed GlmZ)]
binding [1]: binds | binding [2]: binds

GGGAGAGUAGAUGCUCAUUCCAUCUCUUAUGUUCGCCUUAGUGCCUCAUAAACUCCGGAAUGACGCAGAGCCGUUUACGGUGCUUAUCGUCCACUGACAGAUGUCGCUUAUGCCUCAUCAGACACCAUGGACACAACGUUGAGUGAAGCACCCACUUGUUGUCAUACAGACCUGUUUUAACGCCUGCUCCGUAAUAAGAGCAGGCGUUUUUUU [GlmZ full-length]
binding [1]: binds | binding [2]: binds
